Test results reported in the nanobody polyreactivity screen of Harvey et al. (2022).

Experiment: yeast display, Sf9 membrane polyspecificity reagent, FACS + sequencing; frameworks hold sequencing errors
Procedure, shortened: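 Galactose-induced (36–48 hours) yeast carrying a synthetic nanobody display library were exposed to 10% biotinylated, detergent-solubilized Sf9 membrane reagent at 4 °C for 1 hour. FACS followed streptavidin microbead enrichment, using low and high (top ~1%) gates for expression (anti-HA) and reagent binding (streptavidin). Colony PCR, MiSeq 2 × 250 sequencing and CDR-length filtering followed. Labels for polyreactivity reflect the gate of origin.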

Sequence	polyreactivity (PSR sort gate)
QVQLVESCGGLVQAVGSLRLSCAASGIIIGYNAIGWYILAPGKEREFVAAISGYGGSTRYADSVKGRFTISRDYGKNSVYLQMNSLKPEDTAVYYCAARSRYCYITFDYWGQGTQVTVSS	high polyreactivity
QVQLVESGGGLLQAGGSLRISCAASGSILFLYDMGWYRQAPGKERELVAAIRWSGGGTYYADSVKGRFTISRDNAKNTVYLQMNSLKPEDTAVYYCAAAARYPFDVTYYYWGQGTQVTVSS	high polyreactivity
QVQLVESGGGLVQAGGSLRLSCAASGFTFYTYAMGLYRQAPGKERELVAAITSSGGSTYYADSVKGRFTISRDNAKNTVYLQMKSLKPEDTAVYYCNAVSYYLGDDYWGQGTQVTVSS	high polyreactivity
QEQLEESGGGLVQAGGSLRLSCAASGRIFAAYAKGWYRPAPGKEREVVAGITRTGGSTYYADSVKGRFTISRDNAKNTVYLQMNSLKPEDTAVYYCAARWIWRGYDYWGQGTKVTVSS	high polyreactivity
HVQLVESGGGLVQAGGSLRLSCAASGSTFSSYAMGWYRQAPGQERELVAAITGGGANTYYADSVKGRFTISRDNAKNTVYLQMNSLKPEDTAVYYCNARSGYLHSKWTGYYWGQGTQVTVSS	low polyreactivity
QVQLVESGGGLVQAGGSLRLSCAASGSIFTYYAMGWYRQAPGKERELVAAITRRGGSTYYADSVKGRFTISRDNAKNTVYLQMNSLKPEDTAVYYCNAFTYWASYWDYDYWGQGTQVTVSS	low polyreactivity
QVQLVESGGGLVQAGGSLRLSCAASGFIFGGYAMGWYRQAPGNERDLVAAITSSGGDTYYADSVKGRFTISRDNAKNTVYLQMNSLKPEDTAVYYCAKRARRIGDVNMGSWGQGTQVTVSS	low polyreactivity
QVQLVESGGGLVQAGGSLRLSCAASGSTFSSYAMGWYRPAPGKERELVARISSSGGRTSYADSVKGRFTISRDHAKNTVYLQMNSLKAEDTAVSYCAAEDQYYRYFFSYEYWGQGTQVTVSS	high polyreactivity
QVQLVESGGGLVQAGGSLRLSCAASGSIFTAYTMGWYRQAPGKERELVAAITERGGSTYYADSVKGRFTISRDNAKKTVYLQMNSMKPEDTAVYYCAASTLKDIYLWFRVDYWGQGTQVTVSS	low polyreactivity
QLQLVESGGGLVQAGGSLRLSCAASGFTFKYNARGWYSQAPGKARELVASISSGSTTYADSVKGRFTISRDNAKNTVYLQINSLKPEDTAVYYCAASVSRGKRFRYGYVFKMDHWGQGTQVTVSS	low polyreactivity
QVQLVESSGGLVQAGGSLRLSCAASGRTFTSNAMGWYRQAPGKERELVAAISNGGSTYYADSVKGRFTISRDNAKNTVYLQMNSLKPEDTAVYYCAAQYRVLWYSYYYWGQGTQVTVSS	high polyreactivity
QVQLVESGGGFVQAGGSLSLSCAASGFTFRRYAMGWYRQAPGKERELVAAITSGGSTNYADSVKGRFTISRDNAKNTVYLQMNSLKPEDTAVYYCNARAGYERYGYWGQGTQVTVSS	high polyreactivity
QVQLVESGGGLVQAGGSLRLSCAASGRILDANDMGWYRQAPGKERELVAGINSGGSTYYADSVKGRFTISRDNAKNTVYLQMNSLKPEDTAVYYCAAGGVSAKYDYWGQGTKVTVSS	low polyreactivity
QVQLVESGGGIVQAGGSLRLSCAASGRTFVVNDMGWYRQAPGKERELVAAINYNAGSTFYADSVKGRFTISRDNAKNTVYLQMNSLKPEDTAVYYCATVVYGYVEYDYWGQGTEVTVSS	low polyreactivity
QVQLEESGGGLVQAGGRLRLSCAASGSTFVDYAMGWYRQAPGKQRELVAAISWRGGSTYYADSVKGRFTISRDNAKKTVYLQMNSLKPEDTAVYYCAAEHSGRSPYGYGYWGQGTQVTVSS	high polyreactivity
QVQLVESGGGLVQAGGSLRLSCAASGFTIYGYVMGWYRQAPGKVRELVAAISYSAGRTYYADSVKGRFTISRDNAKNTVYLQMNSLKPEDTAVYYCNAPSVGAAFDYCGQGTQVTVSS	high polyreactivity
QVQLVESGGGLVQAGGSLRLSCAASRFNFDRNVSGWYRQEPGKERELVAAITGSGGRTYYADSVKGRFKISRDNAKNTVYLQMNSLKPEDTAVYYCARAFGQRRYVYWGQGTQVTVSS	high polyreactivity
QVQLVESAVGLVKAGGSHRLSCAASASTFYLNARGWYRQAPGKEREFVAAIRGGGTSKRYADSVKGRFTISRDNATNTVYLQMNILKPEDSAVYYCAAGRGGHRYKVGYWGLGTQVTVSS	high polyreactivity
QVQLVESGGGLVQAGGSLRLSCAASGSIFAGNAMGWYRQAPGKERELVAAITWSGGSTYYADSVKGRFTISRDNAKNTVYLQMNSLKPEDTAVYYCAADPPGYVYGKRYYWGQGTQVTVSS	high polyreactivity
QVQLGESGGGLVQAGGSLRLSCAASGSIFGHYAMGWYRQAPGKERELVAAISWSGTSTYYADSVKGRFTISRDNAKNTVYFQMNTLKPEDTAVYYCNVVYRVVSPSGGGYWGQGTQVTVSS	high polyreactivity
QVQLVESGGGLVQAGGSLRLSCAASGRTFYTYAMGWYRQAPGKERELVAAINWSATRTYYADSVKGRFTISRDNAKNTVYLQMNSLKPEDTAVYYCNAVYYRSSYPSGRYGMDYWGQGTQVTVSS	high polyreactivity
QVQLVESRGGLVQAGGSLRLSCAASGFTFGWYAMGWYRQSPGKERELVAAITSGGSTKYADSVKGRFTISRDNAKNTVYLEMNSLKPEETAVYYCAAKRLGQYRPYTYGYWGQGTQVTVSS	high polyreactivity

Sequence	polyreactivity (PSR sort gate)
QVQLVESGGGLVQAGGSLRLSCAASVSIFYFYAMGWYIQAPGKERELVAAITDGGSTHYADSVKGRFTISRDNAKNTVYLQMNSLKPEDTAVYYCAAQWHYYLGSGYQYDYWGQGTQVTVSS	low polyreactivity
QVQLEESGGGLVQAGGSLRLSCAASGLTFDPYAMGWSRQAPGKERELVAVITSRTGSTYYADSVKGRFTISRDNAKNTVYLQMNSLKPEDTAVYYCAAEIYYYGMYGYDYWGQGTQVTVSS	high polyreactivity
QVHLVESRGVLVQAGGSLRLSCAASGFTFNRNAMGWYRQAPGKERELVAAISTSGGRTYYADSVKGRFTISRDNAKNTVYLHMNSLKPEDTAVYYCAADGIYPVGVDYWGQGTQVTVSS	high polyreactivity
QVQLLESGGGLVQAGGSLRLSCAASGRIFVSNAMGWYRQAPGKERELVAAISKSGGRTYYADSVKGRFTISRDNAKNTVYLQMNSLKPEDTAVYYCAADIFTQGFDYWGQGTQVTVSS	high polyreactivity
QVQLVESGGGLVQAGGSLRLSCAASGFTFTRYTMGWYRQAPGKERELVAAITSGGRTNYADSVKGRFTISRDNAKNTVYLQMNSLKPEDTAVYYCAARYVYYWAYGNEYWGHGTQVTVSS	high polyreactivity
QVQLVESGGGLVQAGGSLRLSCAASGSTFSINAMGWYRQAPGIERELVAAISRSGGSTYYADSVKGRFTISRDNAKNTVYLQMNSLKPEDTAVYYCAADSRYDYEYWGQGTQVTVSS	high polyreactivity
QVQLEESGGGIVQAGGSLRLSCAASGSIFGVYAMGMYRQAPGKERELVAVISRGGTYYADSVKGRFTISRDNAKNTVYLQMHSLKPEDTAVYYCAARTRKSTVFYGLDYWGQGTQVTVSS	high polyreactivity
QVQLVESGGGLDQAGGSLRLSCAASGLIFYYYAMGWYRQAPGKERELVAAISSNGGSTYYADSVKGRFTISRDNAKNTVYLQMNSLKPEDTAGYYCAAVGRVDGYRYDYWGQGTQVTVSS	high polyreactivity
QVQLVESGGGIVQAGGSLRLSCAASGFTFHTYAMGWYRQAPGKERELVAAISYSGGNTYYADSVKGRFTISRDNAMNTVYLQMNSLKPEDTAVYYCAAQSYYRYYWGQGTQVTVSS	high polyreactivity
QVQLVESGGGLVQAGGSLRLSCAASGSIFDLYAMGWYRQAPGKERELVASIRYSGGRTYYADSVKGRFTISRDNAKNTVYLQMNSLKPEDTAVYYCNRDGGYTFIMDYWGQGTQVTVSS	low polyreactivity
QVQLVESGGGLVQAGGSLRLSCAASGRIFAYYAMGWYRQAPGKERELVATIRSGGDTNYADSVKGRFTISRDNAKNTVYLQMNSLKPEDTAVYYCNALYDWWYPHEYNYWGQGTQVTVSS	low polyreactivity
QVQLVESGGGLVQAGGSLRLICAASGSTFFPYAMGWYRQAPGKERELVAGISSDGGTSYADSVKGRFTISRDNAKNTVYLQMNSLKPEDTAVYYCAAYYTHQPAHHYWGQGTQVTVSS	low polyreactivity
QVQLVESGGGLVQAGGSLRLSCAASGRTVPYNAMGWYRQAPGKESELVAAISGRGGSTYYADSVKGRFTISRDNAKKTVYLQMTSLKPEDTAVYYCAARLPWSYYRTQGYNYWGQGTQVTVSS	high polyreactivity
QVQLVESGGGLVQAGGSLRLSCAASGGIFGTNDMGWYRQAPGKERELVAAITSDSGSTYYADSVKGRFTISRDNAKNTVYLQMNSLKPEDTAVYYCAAEDGPWFYRYGYWGQGTQVTVSS	low polyreactivity
QVQLVESGGCLVQAGGSLRLSCAASGFIFAYNAMGWYRQAPGKERELDAAISWSGGSTYYADSVKGRFTISRDNAKNTVYLQMNSLKPEDTAVYYCNKYIRYPFKRYGYWGQGTQVTVSS	high polyreactivity
QVQLVESGGGLVQAGGSLRLSCAASGSTFRGYAMGWYRQAPGKERELVAGITKRGGSTYYADSVKGRFTISRDNAKNTVYLQMNSLKPEDTAVYYCAAGKHRQAYEHDYWGQGTQVTVSS	high polyreactivity
QVQLVESGGGLVQAGGSLRLSCAASGSTFAYNAMGWYRQAPGKERELVAAIDINDGNTYYADSVKGRFTISRDNAKNTVYLQMNSLNPEDTAVYYCAAEGPYYLGLDGVKDDYWGQGTQVTVSS	low polyreactivity
QVQLVESGGGLVQAGGSLRLSCAASGSTSVVNAMGWSRQAPGKERELVAVITISAVSTYYADSVKGRFTISRDNAKNTVYLQMNSLKPEDTAVYYCAARSYVIYDNFEYDYWGQGTQVTVSS	high polyreactivity
QVQLVESGGGLVQAGGSLRLSCAASGSTFDRYAMGWYRQAPGKERELVAAISHSGGRTYYADSVKGRFTISRDNAKNTVYLQMNSLKPEDTAVYYCAAKSRSGTEAAYGYWGQGTQVTVSS	low polyreactivity
QVQLVESAGGLVQAGGSLRLSCAASGRIFSYKAMGWYRQAPGKQRELVAAISYSGGRTYYADSVKGRFTISRDNAKNTVYLQMYSLKPEDTAVYYCAAEAHLAGFYRYYGGYGYDYWGQGTQVTVSS	high polyreactivity
QVQLVETGRGLVQAGGSLRLSCAASGRIFYANAMGWYRQAPGKERELVAAISRTGGSTYYADSVKGRFTISRDNAKNTVYLQMNSLKPEDTAVYYCNALSGVYGYDDWGQGTQVTVSS	high polyreactivity
